Data taken from article PMC7506556, “Structure and function of bacteriophage CBA120 ORF211 (TSP2), the determinant of phage specificity towards E. coli O157:H7” (Scientific Reports, 2020).

Molecular target: the molecule itself
Assay: not stated; purified TSP2 site-directed mutants; how the trimeric state was shown is not told

| Protein | stoichiometry N |
| --- | --- |
| D506A:D571A TSP2 (enzyme, UniProt G3M190 1-921, looked up, Made by Q5 site-directed mutagenesis of the TSP2 plasmid; also called TSP2 D506A:D571A double mutant; source: E. coli BL21(DE3), purified similar to wild type TSPs) MTRNVEELFGGVITAPHQIPFTYKSNVGGETFLSLPFYPVTGVVTINGGMQVPLDNFEIEGNTLNLGRALSKGDVVYCLFDKILSPEDTAKGIRIYKFQAVGGETEFTPDFTSYGVQSLYIGGEYKTPEIEYSYDSTTGKVSLQTALSAGVWVVAEMSVKQPNISPAFDRSIQEIARSANVKDSEVIVSTDTISLLDGKKVVYDIATQTSYGLPTIPDGSVISSVSAGKLNYNPGDVQVDLLPLEDSFINVINTLGRNDGAKYIGECHSVADLRNTEPTMDGQRIILKQHTAGTLLGGGVFRALIDGTGKTDNNGTVIKTVGGAAWLRVNADRVNPFMFGALGGSNDDTIPVQSCVDSGKATQLTDAHYVSNIQLKYNTSSIYGSGLHYSRLHQLPSATGNCITIKDTCSLIVLDAFGVYGTGAQQGTSFTAGTTGIYVETPSGLSADYPFHTTADPRRDLCISKVHIAGFDEYGLNIDSGNFSVTTDSLLVNHINQVGVRCATTAWTWTNIQVNTCGKQCLVLDGCGNGRIIGGKFIWANWQPYGTVGQFPGITINNSQNMVINGIEVQACGGNGIEISESYSISMNGLNTNRNGINANNTFYNIVFNKSDAVINGFVGLNYAANSGSGANSSAGNFQFLSNDCSVTINGVVETGYMGINFIGDNNIINPTNSDLSINGLVNYSKTGLQTMNETPTFDGVSTTPVYVSVPSSVGQVNGLRLSQANKDKLLYSRTAGPEGITMAAVIVPTISGAEVFNFMAIGSGFSDTSNSLHLQLVIDASGKQTIALLLGGDGTTQILSGDLPNDLKLQSGVPYHIAIGAKPGYFWWSILNIQTGKRIRRSFRGAYLAVPFNSIFGLTSSLTFFSDSNAGGDACSGVGAKVYVGMFSSENDYVASRYYNLINPVDPTKLISYRILDSSI | 3 |
| D506N:E568Q:D571N TSP2 (enzyme, UniProt G3M190 1-921, looked up, Made by Q5 site-directed mutagenesis of the TSP2 plasmid; source: E. coli BL21(DE3), purified similar to wild type TSPs) MTRNVEELFGGVITAPHQIPFTYKSNVGGETFLSLPFYPVTGVVTINGGMQVPLDNFEIEGNTLNLGRALSKGDVVYCLFDKILSPEDTAKGIRIYKFQAVGGETEFTPDFTSYGVQSLYIGGEYKTPEIEYSYDSTTGKVSLQTALSAGVWVVAEMSVKQPNISPAFDRSIQEIARSANVKDSEVIVSTDTISLLDGKKVVYDIATQTSYGLPTIPDGSVISSVSAGKLNYNPGDVQVDLLPLEDSFINVINTLGRNDGAKYIGECHSVADLRNTEPTMDGQRIILKQHTAGTLLGGGVFRALIDGTGKTDNNGTVIKTVGGAAWLRVNADRVNPFMFGALGGSNDDTIPVQSCVDSGKATQLTDAHYVSNIQLKYNTSSIYGSGLHYSRLHQLPSATGNCITIKDTCSLIVLDAFGVYGTGAQQGTSFTAGTTGIYVETPSGLSADYPFHTTADPRRDLCISKVHIAGFDEYGLNIDSGNFSVTTDSLLVNHINQVGVRCATTNWTWTNIQVNTCGKQCLVLDGCGNGRIIGGKFIWANWQPYGTVGQFPGITINNSQNMVINGIQVQNCGGNGIEISESYSISMNGLNTNRNGINANNTFYNIVFNKSDAVINGFVGLNYAANSGSGANSSAGNFQFLSNDCSVTINGVVETGYMGINFIGDNNIINPTNSDLSINGLVNYSKTGLQTMNETPTFDGVSTTPVYVSVPSSVGQVNGLRLSQANKDKLLYSRTAGPEGITMAAVIVPTISGAEVFNFMAIGSGFSDTSNSLHLQLVIDASGKQTIALLLGGDGTTQILSGDLPNDLKLQSGVPYHIAIGAKPGYFWWSILNIQTGKRIRRSFRGAYLAVPFNSIFGLTSSLTFFSDSNAGGDACSGVGAKVYVGMFSSENDYVASRYYNLINPVDPTKLISYRILDSSI | 3 |
| D506N:D571A TSP2 (enzyme, UniProt G3M190 1-921, looked up, Made by Q5 site-directed mutagenesis of the TSP2 plasmid; source: E. coli BL21(DE3), purified similar to wild type TSPs) MTRNVEELFGGVITAPHQIPFTYKSNVGGETFLSLPFYPVTGVVTINGGMQVPLDNFEIEGNTLNLGRALSKGDVVYCLFDKILSPEDTAKGIRIYKFQAVGGETEFTPDFTSYGVQSLYIGGEYKTPEIEYSYDSTTGKVSLQTALSAGVWVVAEMSVKQPNISPAFDRSIQEIARSANVKDSEVIVSTDTISLLDGKKVVYDIATQTSYGLPTIPDGSVISSVSAGKLNYNPGDVQVDLLPLEDSFINVINTLGRNDGAKYIGECHSVADLRNTEPTMDGQRIILKQHTAGTLLGGGVFRALIDGTGKTDNNGTVIKTVGGAAWLRVNADRVNPFMFGALGGSNDDTIPVQSCVDSGKATQLTDAHYVSNIQLKYNTSSIYGSGLHYSRLHQLPSATGNCITIKDTCSLIVLDAFGVYGTGAQQGTSFTAGTTGIYVETPSGLSADYPFHTTADPRRDLCISKVHIAGFDEYGLNIDSGNFSVTTDSLLVNHINQVGVRCATTNWTWTNIQVNTCGKQCLVLDGCGNGRIIGGKFIWANWQPYGTVGQFPGITINNSQNMVINGIEVQACGGNGIEISESYSISMNGLNTNRNGINANNTFYNIVFNKSDAVINGFVGLNYAANSGSGANSSAGNFQFLSNDCSVTINGVVETGYMGINFIGDNNIINPTNSDLSINGLVNYSKTGLQTMNETPTFDGVSTTPVYVSVPSSVGQVNGLRLSQANKDKLLYSRTAGPEGITMAAVIVPTISGAEVFNFMAIGSGFSDTSNSLHLQLVIDASGKQTIALLLGGDGTTQILSGDLPNDLKLQSGVPYHIAIGAKPGYFWWSILNIQTGKRIRRSFRGAYLAVPFNSIFGLTSSLTFFSDSNAGGDACSGVGAKVYVGMFSSENDYVASRYYNLINPVDPTKLISYRILDSSI | 3 |
| D506N:D571N TSP2 (enzyme, UniProt G3M190 1-921, looked up, Made by Q5 site-directed mutagenesis of the TSP2 plasmid; also called TSP2 D506N:D571N double mutant; TSP2 asparagine double mutant; source: E. coli BL21(DE3), purified similar to wild type TSPs) MTRNVEELFGGVITAPHQIPFTYKSNVGGETFLSLPFYPVTGVVTINGGMQVPLDNFEIEGNTLNLGRALSKGDVVYCLFDKILSPEDTAKGIRIYKFQAVGGETEFTPDFTSYGVQSLYIGGEYKTPEIEYSYDSTTGKVSLQTALSAGVWVVAEMSVKQPNISPAFDRSIQEIARSANVKDSEVIVSTDTISLLDGKKVVYDIATQTSYGLPTIPDGSVISSVSAGKLNYNPGDVQVDLLPLEDSFINVINTLGRNDGAKYIGECHSVADLRNTEPTMDGQRIILKQHTAGTLLGGGVFRALIDGTGKTDNNGTVIKTVGGAAWLRVNADRVNPFMFGALGGSNDDTIPVQSCVDSGKATQLTDAHYVSNIQLKYNTSSIYGSGLHYSRLHQLPSATGNCITIKDTCSLIVLDAFGVYGTGAQQGTSFTAGTTGIYVETPSGLSADYPFHTTADPRRDLCISKVHIAGFDEYGLNIDSGNFSVTTDSLLVNHINQVGVRCATTNWTWTNIQVNTCGKQCLVLDGCGNGRIIGGKFIWANWQPYGTVGQFPGITINNSQNMVINGIEVQNCGGNGIEISESYSISMNGLNTNRNGINANNTFYNIVFNKSDAVINGFVGLNYAANSGSGANSSAGNFQFLSNDCSVTINGVVETGYMGINFIGDNNIINPTNSDLSINGLVNYSKTGLQTMNETPTFDGVSTTPVYVSVPSSVGQVNGLRLSQANKDKLLYSRTAGPEGITMAAVIVPTISGAEVFNFMAIGSGFSDTSNSLHLQLVIDASGKQTIALLLGGDGTTQILSGDLPNDLKLQSGVPYHIAIGAKPGYFWWSILNIQTGKRIRRSFRGAYLAVPFNSIFGLTSSLTFFSDSNAGGDACSGVGAKVYVGMFSSENDYVASRYYNLINPVDPTKLISYRILDSSI | 3 |
| D506N:E568A:D571N TSP2 (enzyme, UniProt G3M190 1-921, looked up, Made by Q5 site-directed mutagenesis of the TSP2 plasmid; source: E. coli BL21(DE3), purified similar to wild type TSPs) MTRNVEELFGGVITAPHQIPFTYKSNVGGETFLSLPFYPVTGVVTINGGMQVPLDNFEIEGNTLNLGRALSKGDVVYCLFDKILSPEDTAKGIRIYKFQAVGGETEFTPDFTSYGVQSLYIGGEYKTPEIEYSYDSTTGKVSLQTALSAGVWVVAEMSVKQPNISPAFDRSIQEIARSANVKDSEVIVSTDTISLLDGKKVVYDIATQTSYGLPTIPDGSVISSVSAGKLNYNPGDVQVDLLPLEDSFINVINTLGRNDGAKYIGECHSVADLRNTEPTMDGQRIILKQHTAGTLLGGGVFRALIDGTGKTDNNGTVIKTVGGAAWLRVNADRVNPFMFGALGGSNDDTIPVQSCVDSGKATQLTDAHYVSNIQLKYNTSSIYGSGLHYSRLHQLPSATGNCITIKDTCSLIVLDAFGVYGTGAQQGTSFTAGTTGIYVETPSGLSADYPFHTTADPRRDLCISKVHIAGFDEYGLNIDSGNFSVTTDSLLVNHINQVGVRCATTNWTWTNIQVNTCGKQCLVLDGCGNGRIIGGKFIWANWQPYGTVGQFPGITINNSQNMVINGIAVQNCGGNGIEISESYSISMNGLNTNRNGINANNTFYNIVFNKSDAVINGFVGLNYAANSGSGANSSAGNFQFLSNDCSVTINGVVETGYMGINFIGDNNIINPTNSDLSINGLVNYSKTGLQTMNETPTFDGVSTTPVYVSVPSSVGQVNGLRLSQANKDKLLYSRTAGPEGITMAAVIVPTISGAEVFNFMAIGSGFSDTSNSLHLQLVIDASGKQTIALLLGGDGTTQILSGDLPNDLKLQSGVPYHIAIGAKPGYFWWSILNIQTGKRIRRSFRGAYLAVPFNSIFGLTSSLTFFSDSNAGGDACSGVGAKVYVGMFSSENDYVASRYYNLINPVDPTKLISYRILDSSI | 3 |
| D506A:D571N TSP2 (enzyme, UniProt G3M190 1-921, looked up, Made by Q5 site-directed mutagenesis of the TSP2 plasmid; source: E. coli BL21(DE3), purified similar to wild type TSPs) MTRNVEELFGGVITAPHQIPFTYKSNVGGETFLSLPFYPVTGVVTINGGMQVPLDNFEIEGNTLNLGRALSKGDVVYCLFDKILSPEDTAKGIRIYKFQAVGGETEFTPDFTSYGVQSLYIGGEYKTPEIEYSYDSTTGKVSLQTALSAGVWVVAEMSVKQPNISPAFDRSIQEIARSANVKDSEVIVSTDTISLLDGKKVVYDIATQTSYGLPTIPDGSVISSVSAGKLNYNPGDVQVDLLPLEDSFINVINTLGRNDGAKYIGECHSVADLRNTEPTMDGQRIILKQHTAGTLLGGGVFRALIDGTGKTDNNGTVIKTVGGAAWLRVNADRVNPFMFGALGGSNDDTIPVQSCVDSGKATQLTDAHYVSNIQLKYNTSSIYGSGLHYSRLHQLPSATGNCITIKDTCSLIVLDAFGVYGTGAQQGTSFTAGTTGIYVETPSGLSADYPFHTTADPRRDLCISKVHIAGFDEYGLNIDSGNFSVTTDSLLVNHINQVGVRCATTAWTWTNIQVNTCGKQCLVLDGCGNGRIIGGKFIWANWQPYGTVGQFPGITINNSQNMVINGIEVQNCGGNGIEISESYSISMNGLNTNRNGINANNTFYNIVFNKSDAVINGFVGLNYAANSGSGANSSAGNFQFLSNDCSVTINGVVETGYMGINFIGDNNIINPTNSDLSINGLVNYSKTGLQTMNETPTFDGVSTTPVYVSVPSSVGQVNGLRLSQANKDKLLYSRTAGPEGITMAAVIVPTISGAEVFNFMAIGSGFSDTSNSLHLQLVIDASGKQTIALLLGGDGTTQILSGDLPNDLKLQSGVPYHIAIGAKPGYFWWSILNIQTGKRIRRSFRGAYLAVPFNSIFGLTSSLTFFSDSNAGGDACSGVGAKVYVGMFSSENDYVASRYYNLINPVDPTKLISYRILDSSI | 3 |
